The Kd is the equilibrium constant for the complex coming apart. What is called stoichiometry N is a count of units in the complex or per binding partner.

The target in experiment [1] is whole-length cardiac myosin isolated from mice hearts (mouse) (UniProt Q91Z83). The experiment in a line: co-sedimentation; whole-length cardiac myosin (10 µM) incubated with increasing concentration (0-10 µM) of hC0-C2; Michaelis-Menten binding fit.
For experiment [2], the target named is wild-type recombinant human cMyBP-C C0-C2 region (hC0-C2^WT) (human). The experiment in a line: solid-phase binding assay; 20 µM hC0-C2 incubated with increasing concentrations of hS2 (0-20 µM); binding of hS2 read by fluorescence intensity; Michaelis-Menten binding fit; n = 3.
The target of experiment [3] is recombinant human cMyBP-C C0-C2 region with D389V (hC0-C2^D389V) (human). The experiment is described as above.
Experiment [4] has as its target wild-type recombinant human cMyBP-C C0-C2 region (hC0-C2^WT) (human). Description: ITC; 20 µM hC0-C2 titrated against 350 µM hS2; n = 3.

Chain of UniProt Q91Z83 (Q91Z83 whole entry, chain 1 of 3): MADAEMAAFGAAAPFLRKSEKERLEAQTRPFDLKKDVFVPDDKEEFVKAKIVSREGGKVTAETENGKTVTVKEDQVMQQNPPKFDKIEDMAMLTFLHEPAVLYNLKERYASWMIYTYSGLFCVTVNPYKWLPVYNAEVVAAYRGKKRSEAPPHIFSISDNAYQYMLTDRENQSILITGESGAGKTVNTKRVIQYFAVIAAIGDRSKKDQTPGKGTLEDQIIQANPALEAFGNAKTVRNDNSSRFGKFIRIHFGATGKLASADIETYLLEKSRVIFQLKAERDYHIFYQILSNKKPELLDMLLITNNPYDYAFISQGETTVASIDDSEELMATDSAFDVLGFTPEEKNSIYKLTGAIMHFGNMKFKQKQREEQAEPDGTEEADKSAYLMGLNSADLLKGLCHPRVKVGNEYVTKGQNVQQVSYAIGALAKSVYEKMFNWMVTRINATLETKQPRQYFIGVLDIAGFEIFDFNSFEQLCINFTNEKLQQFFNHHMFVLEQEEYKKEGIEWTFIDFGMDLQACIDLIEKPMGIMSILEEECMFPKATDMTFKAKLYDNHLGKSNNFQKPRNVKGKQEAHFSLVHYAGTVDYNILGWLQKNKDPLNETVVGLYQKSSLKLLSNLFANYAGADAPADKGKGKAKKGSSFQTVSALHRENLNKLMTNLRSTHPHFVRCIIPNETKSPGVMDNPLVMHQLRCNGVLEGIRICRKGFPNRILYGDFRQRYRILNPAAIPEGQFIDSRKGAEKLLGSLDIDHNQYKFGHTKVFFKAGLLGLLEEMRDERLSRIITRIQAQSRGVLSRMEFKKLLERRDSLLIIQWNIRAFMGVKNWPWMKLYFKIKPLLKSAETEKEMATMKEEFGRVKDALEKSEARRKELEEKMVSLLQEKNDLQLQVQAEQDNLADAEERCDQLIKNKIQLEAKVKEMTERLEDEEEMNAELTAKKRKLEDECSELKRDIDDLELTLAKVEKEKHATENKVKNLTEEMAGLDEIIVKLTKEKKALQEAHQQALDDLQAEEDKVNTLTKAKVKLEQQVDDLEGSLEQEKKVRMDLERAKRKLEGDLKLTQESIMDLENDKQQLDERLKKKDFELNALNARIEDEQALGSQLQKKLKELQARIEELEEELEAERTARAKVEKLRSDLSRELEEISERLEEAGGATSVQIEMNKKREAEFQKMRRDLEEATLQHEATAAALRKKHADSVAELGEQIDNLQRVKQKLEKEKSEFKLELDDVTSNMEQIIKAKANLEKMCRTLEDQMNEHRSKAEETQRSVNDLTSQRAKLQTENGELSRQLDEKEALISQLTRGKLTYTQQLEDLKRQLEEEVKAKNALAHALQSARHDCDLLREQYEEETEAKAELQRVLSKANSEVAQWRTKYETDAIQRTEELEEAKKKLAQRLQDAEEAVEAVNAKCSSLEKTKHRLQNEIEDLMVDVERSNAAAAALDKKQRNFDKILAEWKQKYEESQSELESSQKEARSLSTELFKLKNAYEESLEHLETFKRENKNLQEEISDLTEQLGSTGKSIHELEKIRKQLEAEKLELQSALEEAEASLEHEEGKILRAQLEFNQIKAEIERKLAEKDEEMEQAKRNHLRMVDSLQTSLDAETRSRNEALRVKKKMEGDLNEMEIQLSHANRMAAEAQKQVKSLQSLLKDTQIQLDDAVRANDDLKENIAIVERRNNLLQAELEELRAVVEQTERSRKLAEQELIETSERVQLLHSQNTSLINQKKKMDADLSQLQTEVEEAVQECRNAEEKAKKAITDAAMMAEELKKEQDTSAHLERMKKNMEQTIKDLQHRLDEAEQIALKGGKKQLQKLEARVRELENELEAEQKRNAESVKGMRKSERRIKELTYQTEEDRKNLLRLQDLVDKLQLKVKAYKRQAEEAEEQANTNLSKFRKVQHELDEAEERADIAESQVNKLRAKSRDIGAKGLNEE
Chain of UniProt Q91Z83 (P09542 2-204, chain 2 of 3, further chain): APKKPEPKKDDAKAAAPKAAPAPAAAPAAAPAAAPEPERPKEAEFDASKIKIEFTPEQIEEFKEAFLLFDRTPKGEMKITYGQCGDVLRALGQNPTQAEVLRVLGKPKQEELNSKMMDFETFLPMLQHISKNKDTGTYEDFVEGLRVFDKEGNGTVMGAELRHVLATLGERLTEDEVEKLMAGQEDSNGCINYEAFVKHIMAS
Chain of UniProt Q91Z83 (P51667 2-166, chain 3 of 3, further chain): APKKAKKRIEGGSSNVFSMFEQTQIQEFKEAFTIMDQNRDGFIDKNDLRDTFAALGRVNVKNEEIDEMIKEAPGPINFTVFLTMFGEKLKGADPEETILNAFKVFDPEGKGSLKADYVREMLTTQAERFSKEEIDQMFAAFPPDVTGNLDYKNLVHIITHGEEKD

The substance “recombinant human cMyBP-C C0-C2 region with D389V (hC0-C2^D389V) (domain or fragment)” displayed a Kd in experiment [1] of 900 nM.
Turning to “recombinant proximal (126 residues) human myosin S2 (hS2) (domain or fragment)”, the equilibrium dissociation constant (Kd) in experiment [2] was found to be 4950 nM; in experiment [3], 4730 nM. Further, in experiment [4], the stoichiometry N is 0.96.
Take “wild-type recombinant human cMyBP-C C0-C2 region (hC0-C2^WT) (domain or fragment)”: the Kd in experiment [1] came to 840 nM.

The values above are taken from publication PMC11592734.
